According to patent US20190218304A1, “POTENTIATING THE EFFECT OF ATP RELEASE” (INNATE PHARMA, priority 2017, published 2019):

Molecular target: T1, Human CD39-L3, also known as NTPDase3 or ENTPD3 (Homo sapiens, UniProt O75355)
T1 sequence (O75355 1-529): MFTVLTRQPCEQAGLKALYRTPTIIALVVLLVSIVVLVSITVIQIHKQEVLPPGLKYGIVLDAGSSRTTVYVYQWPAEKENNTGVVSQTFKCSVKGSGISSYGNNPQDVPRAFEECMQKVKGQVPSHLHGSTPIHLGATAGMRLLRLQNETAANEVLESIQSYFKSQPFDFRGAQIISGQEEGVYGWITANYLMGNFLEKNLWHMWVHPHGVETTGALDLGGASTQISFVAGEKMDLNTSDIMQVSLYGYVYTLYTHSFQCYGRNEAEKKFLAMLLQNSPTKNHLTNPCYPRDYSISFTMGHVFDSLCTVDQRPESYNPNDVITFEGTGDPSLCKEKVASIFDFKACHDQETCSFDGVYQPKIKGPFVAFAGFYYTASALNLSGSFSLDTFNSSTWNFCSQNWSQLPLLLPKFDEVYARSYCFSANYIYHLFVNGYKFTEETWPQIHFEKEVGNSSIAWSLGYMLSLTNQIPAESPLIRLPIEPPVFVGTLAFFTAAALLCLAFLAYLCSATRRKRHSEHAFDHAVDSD
Test: ELISA titration on CD39-L3
Assay type: binding
Conditions: coated recombinant protein, OD=450
Description: Wells were washed in TBS Tween 20, and further saturated 2H at RT in TBS Blocking buffer. Dose range concentration of primary antibody was incubated in TBS blocking buffer for 2 h at RT. Wells were washed in TBS Tween 20. […] Optical density was measured on Enspire™ at OD=450.

B1: I-394: anti-CD39 antibody, VH SEQ ID NO: 3, VL SEQ ID NO: 4; heavy and light chains SEQ ID NOS: 37 and 38 (antibody)
heavy: EVQLQQSGPELVKPGASVKMSCKASGYTFTDYNMHWVKQSHGRTLEWIGYIVPLNGGSTFNQKFKGRATLTVNTSSRTAYMELRSLTSEDSAAYYCARGGTRFAYWGQGTLVTVSAASTKGPSVFPLAPSSKSTSGGTAALGCLVKDYFPEPVTVSWNSGALTSGVHTFPAVLQSSGLYSLSSVVTVPSSSLGTQTYICNVNHKPSNTKVDKRVEPKSCDKTHTCPPCPAPEAEGAPSVFLFPPKPKDTLMISRTPEVTCVVVDVSHEDPEVKFNWYVDGVEVHNAKTKPREEQYNSTYRVVSVLTVLHQDWLNGKEYKCKVSNKALPSSIEKTISKAKGQPREPQVYTLPPSREEMTKNQVSLTCLVKGFYPSDIAVEWESNGQPENNYKTTPPVLDSDGSFFLYSKLTVDKSRWQQGNVFSCSVMHEALHNHYTQKSLSLSPGK
light: DIVLTQSPASLAVSLGQRATISCRASESVDNFGVSFMYWFQQKPGQPPNLLIYGASNQGSGVPARFRGSGSGTDFSLNIHPMEADDTAMYFCQQTKEVPYTFGGGTKLEIKRTVAAPSVFIFPPSDEQLKSGTASVVCLLNNFYPREAKVQWKVDNALQSGNSQESVTEQDSKDSTYSLSSTLTLSKADYEKHKVYACEVTHQGLSSPVTKSFNRGEC
modifications: Chimeric homo sapiens mus musculus
- binding to CD39-L3 in ELISA: not to any of the human isoforms
